Source: patent US20220096653A1, “CONJUGATE COMPRISING LIGAND AND CEACAM5 ANTIBODY FAB FRAGMENT” (ASTELLAS PHARMA INC., priority 2019, published 2022)

Key:
[1] = parameters: species or system mice (BALB/c nu/nu); details: mouse, in vivo
Description: (§3) A Gd-labeled conjugate of the conjugate containing a peptide linker produced in one of the above Examples was administered from the tail vein of the tumor-bearing mice so that the protein mass was 0.02 mg (100 μL) per animal. As the tumor-bearing mice used in the present Example, mice (BALB/c nu/nu) that were in a tumor-bearing state brought about by transplanting human breast cancer cell line MDA-MB-468 (ATCC(registered trademark); HTB-132) at 5.0×10^6 cells/mouse subcutaneously on the back before administration of the sample were used. 24 hours after administration of the sample, the mice were sacrificed, the kidneys and the tumor were removed, and the amounts of Gd in the kidneys and in the tumor were measured using ICP-MS. The present test was carried out in 3 cases in each group, and the mean value of the 3 cases was calculated. The amount of Gd contained per kidney after administration was shown as a percentage of the amount of Gd administered (% of dose/tissue), and the amount of Gd contained per g of tumor tissue was shown as a percentage of the total amount of Gd administered (% of dose/g).

[2] = target: human cancer-specific MUC1 peptide; assay: ELISA binding activity of anti-human MUC1 antibody Fab^5 fragment conjugates (Example 6-1); details: each conjugate run in duplicate; Table 52; read-out: EC50
Description: (§1) Each anti-human MUC1 antibody Fab^5 fragment conjugate prepared by the method of Example 5 was subjected to ELISA to evaluate the binding activity thereof to human cancer-specific MUC1. In the present test, 20×PBS/Tween 20 Buffer (Thermo Fisher Scientific Inc., 28352) diluted 20-fold with distilled water was used as a wash liquid. In addition, for bovine serum albumin (BSA) used in the present test, 30% Bovine Serum Albumin solution (Sigma-Aldrich, Inc., A9576-50ML) was added in an appropriate proportion for use. A human cancer-specific MUC1 peptide (PTL 1) at 0.5 μmol/L was added to a Nunc MaxiSorp White 384 plate (Nunc, 460372) at 30 μL per well, and the plate was incubated overnight at 4° C. for immobilization. The MUC1 peptide was removed by reverse centrifugation, and then blocking was carried out by adding a PBS/Tween 20 buffer containing 5.0% BSA. Thereafter, the blocking solution was removed by reverse centrifugation, a solution of each anti-human MUC1 antibody Fab^5 fragment conjugate (Ex-No. 104, 108, or 112) described above at about 10000 ng/mL was diluted in 14 steps by 3-fold dilution using a PBS/Tween 20 buffer containing 1.0% BSA, and 30 μL was added per well and incubated at room temperature for 60 minutes. The plate was washed 3 times with a PBS/Tween 20 buffer, and Horseradish Peroxidase-labeled goat anti-human IgK antibody (Southern Biotechnology Associates, Inc.) diluted 10000-fold using a PBS/Tween 20 buffer containing 5.0% BSA was added at 30 μL per well and incubated at room temperature for 30 minutes. The plate was washed 3 times with a PBS/Tween 20 buffer, and ECL Prime Western Blotting DETECTION Reagent (GE Healthcare, RPN2232) as a substrate was added at 30 μL per well. The substrate was incubated at room temperature for 15 minutes, and then a signal value thereof was measured using an Envision counter (PerkinElmer, Inc.).
(§2) The test for each antibody was carried out in duplicate, and the EC50 value was calculated using a 4-parameter logistic curve model.

[3] = parameters: species or system mice (BALB/c or BALB/c nu/nu); details: mouse, in vivo
Description: A Gd-labeled conjugate of the conjugate containing a peptide linker produced in one of the above Examples was administered from the tail vein of mice (BALB/c or BALB/c nu/nu) so that the protein mass was 0.02 mg (100 μL) per animal. After about 24 hours, the mice were sacrificed and the kidneys were removed, and the amount of Gd in the kidneys was measured using ICP-MS. The present test was carried out in 3 cases in each group, the mean value of the 3 cases was calculated, and the amount of Gd contained per kidney after administration was shown as a percentage (% of dose/tissue) of the total amount of Gd administered.
Based on the amount of Gd contained in the kidneys of the control conjugate, the proportion of decrease in the amount of Gd contained in the kidneys of each of the conjugates having a peptide linker was determined.

[4] = target: human cancer-specific MUC1 peptide (Homo sapiens, UniProt P15941); assay: ELISA binding activity of anti-human MUC1 antibody Fab^5 fragment conjugates (Example 6-2); details: each conjugate run in duplicate; Table 54; read-out: EC50
Description: as §1, with “101-113)” for “104, 108, or 112)”
as §2

[5] = tested on: human breast cancer cell line MDA-MB-468; assay: Amount of tumor accumulation of Gd-labeled Fab^5 conjugates, MDA-MB-468 tumor-bearing mice (Example 8); details: control conjugate Ex-No. 108, mean for 2 runs, 24 hours
Description: as §3

human cancer-specific MUC1 peptide, sequence (as listed by the source): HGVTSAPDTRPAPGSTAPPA

EC50 [2]: 0.07 nM | EC50 [4]: 0.07 nM
B1: Ex-No 108 (conjugate)
heavy: QVQLVQSGAEVKKPGASVKVSCKASGYTFTNYGLSWVRQAPGQGLEWMGENHPGSGIIYHNEKFRGRVTLTADRSTSTAYMELSSLRSEDTAVYYCARSSGTRGFDYWGQGTLVTVSSASTKGPSVFPLAPSSKSTSGGTAALGCLVKDYFPEPVTVSWNSGALTSGVHTFPAVLQSSGLYSLSSVVTVPSSSLGTQTYICNVNHKPSNTKVDKKVEPKSCD
light: DVVMTQTPLSLSVTPGQPASISCRSSQSIVHSNGNTYLEWYLQKPGQSPQLLIYRVSNRFSGVPDRFSGSGSGTDFTLKISRVEAEDVGVYYCFQGSHGPWTFGQGTKLEIKRTVAAPSVFIFPPSDEQLKSGTASVVCLLNNFYPREAKVQWKVDNALQSGNSQESVTEQDSKDSTYSLSSTLTLSKADYEKHKVYACEVTHQGLSSPVTKSFNRGEC
modifications: non-natural residues
Renal residual amount Mean [1]: 34.67 % of dose/tissue | Renal residual amount (normal mice) Mean [3]: 33.00 % of dose/tissue | Amount of tumor accumulation Mean [5]: 0.92 % of dose/g
